Reference: the supplement of paper PMC9732359
± gives the uncertainty stated by the source.

Test: protein stability index of a GFP-peptide fusion (yeast GPS) (PSI 1-4); higher = more stable; sorted into four equal gates, so the index is relative within each strain
How it was run: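 The protein stability index of a peptide was calculated by multiplying its read frequency in each gate by that gate's number and adding the products. The peptides were tiled 17-residue stretches of yeast proteins, fused downstream of GFP on a Cherry-expressing plasmid and carried in yeast as a pooled library. Mid-log cultures in leucine-free medium were sorted into four equal gates by GFP/Cherry ratio, and each gate's plasmids were PCR-amplified and Illumina-sequenced.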

Sequence | protein stability index (doa10∆) | protein stability index (pdr5∆) | protein stability index (san1∆) | protein stability index (ubr1∆)
FGHLKLALPVFHIGYFK [RPO31] | 1.17 ± 0.073 | 1.22 ± 0.062 | 1.24 ± 0.13 | 1.13 ± 0.043
FGINTNTTKTADTKAPT [YLR335W/NUP2] | 3.4 ± 0.085 | 3.41 ± 0.073 | 3.19 ± 0.07 | 3.5 ± 0.048
FGKTVKDGPFYTGSMSL [RPC31] | 2.92 ± 0.15 | 3.17 ± 0.11 | 2.81 ± 0.086 | 2.98 ± 0.1
FGQRAVLKFAAHTGATP [RPS0A] | 2.18 ± 0.082 | 2.56 ± 0.07 | 2.45 ± 0.11 | 2.61 ± 0.067
FIANEGVHTGQFIYAGK [RPL2A] | 2.98 ± 0.22 | 2.44 ± 0.17 | 2.04 ± 0.27 | 
FIENFLTNDTFEKKLSI [YML103C/NUP188] | 3.18 ± 0.22 | 3.12 ± 0.12 | 3.2 ± 0.18 | 3 ± 0.093
FIKEIHKSIELISNLLF [YCS4] | 1.89 ± 0.047 | 2.16 ± 0.051 | 2.48 ± 0.052 | 2.46 ± 0.034
FIMVKGCIPGNRKRIVT [RPL3] | 1.39 ± 0.063 | 1.48 ± 0.08 | 1.57 ± 0.2 | 1.28 ± 0.06
FISNLPNVSDKYYLEES [NUT1] | 2.16 ± 0.098 | 1.49 ± 0.094 |  | 1.27 ± 0.076
FISSNDAFNMLSLTTVP [SNF6] | 1.7 ± 0.054 | 2.44 ± 0.063 | 2.31 ± 0.11 | 2 ± 0.06
FIYDTEKNGGLGWDLDA [FAS2] | 3.21 ± 0.088 | 2.96 ± 0.12 | 3.31 ± 0.051 | 2.52 ± 0.054
FKATHILDFGPGGASGL [FAS1] | 2.75 ± 0.08 | 3.43 ± 0.14 |  | 2.96 ± 0.21
FKLDKDTSNWELSDSWR [YGL100W/SEH1] | 3.37 ± 0.068 | 3.45 ± 0.055 | 3.39 ± 0.037 | 3.31 ± 0.042
FKRVSQTFEAKLHFKDT [NUT1] | 2.96 ± 0.082 | 3.32 ± 0.1 | 3.41 ± 0.053 | 3.19 ± 0.051
FKVQIIELLSYLVEAPW [YML103C/NUP188] | 1.71 ± 0.091 | 2.03 ± 0.12 | 1.69 ± 0.21 | 2.26 ± 0.14
FLFAPELGAINLHALSM [SWI1] | 1.84 ± 0.087 | 2.05 ± 0.08 | 2.49 ± 0.12 | 2.17 ± 0.056
FLKLVLSESPVDFEKFE [SIN4] | 2.58 ± 0.047 | 2.69 ± 0.069 | 2.66 ± 0.07 | 2.7 ± 0.067
FLKVKGLVKQHLDSFNY [RET1] | 3.09 ± 0.17 | 3.18 ± 0.1 | 2.78 ± 0.29 | 2.94 ± 0.19
FLNDVIPTTKNLRLLVE [DLS1] | 3.28 ± 0.091 | 3.16 ± 0.11 | 2.88 ± 0.081 | 3.47 ± 0.087
FLRPTYPDLCSIYDKWT [RPN1] | 2.83 ± 0.064 | 2.82 ± 0.059 | 2.35 ± 0.069 | 2.47 ± 0.046
FLSPYISTHLKTICNLL [IRR1] | 1.57 ± 0.05 | 1.76 ± 0.065 | 1.69 ± 0.1 | 1.29 ± 0.038
FLSSFDDVLQTIITDCA [YJL039C/NUP192] | 2.43 ± 0.045 | 2.07 ± 0.049 | 2.03 ± 0.062 | 2.38 ± 0.034
FMDETAVALAASDLVLI [SNU114] | 2.55 ± 0.062 | 2.74 ± 0.076 | 2.69 ± 0.11 | 2.21 ± 0.051
FMLSDDEGMESIEMEEE [RRI2] | 2.59 ± 0.22 | 3.78 ± 0.29 | 3.38 ± 0.097 | 
FNITDNGVRALFHSCTR [GRR1] | 1.53 ± 0.11 | 2.52 ± 0.088 | 1.09 ± 0.15 | 2.35 ± 0.054

Sequence | protein stability index (doa10∆) | protein stability index (pdr5∆) | protein stability index (san1∆) | protein stability index (ubr1∆)
FNQFVDYTLQDIICEDS [RPB2] | 2.72 ± 0.1 | 2.86 ± 0.083 | 2.78 ± 0.053 | 2.36 ± 0.079
FNTLVRIMSTRCMMAAQ [DIS3] | 1.53 ± 0.07 | 1.73 ± 0.058 | 1.61 ± 0.076 | 1.58 ± 0.036
FNVDDVLKFTFTGEKPI [MED8] | 3.16 ± 0.094 | 3.02 ± 0.097 | 3.29 ± 0.048 | 2.98 ± 0.068
FNYVAVGDVSNLPYLDE [QCR2] | 3.2 ± 0.095 | 3.14 ± 0.11 | 2.98 ± 0.13 | 3.11 ± 0.06
FPKTTVAALRFTAGARA [RPL18A] | 1.58 ± 0.15 | 1.47 ± 0.085 |  | 1.5 ± 0.12
FPQYKLTTFANQVMMDR [ARP7] | 2.6 ± 0.096 | 2.19 ± 0.071 | 2.03 ± 0.13 | 2.4 ± 0.06
FQHILRLLNTNVDGNIK [RPS18A] | 2.87 ± 0.05 | 2.95 ± 0.064 | 2.83 ± 0.045 | 2.59 ± 0.043
FQITLSSDDLQNCWSLI [SSN8] | 2.11 ± 0.049 | 2.33 ± 0.063 | 2.22 ± 0.062 | 1.91 ± 0.045
FQLPTTCVSMAPIQLKI [RGR1] | 1.3 ± 0.051 | 1.76 ± 0.055 | 1.78 ± 0.06 | 1.67 ± 0.039
FQNTNTRSALKLVRESE [QCR2] | 2.7 ± 0.078 | 2.94 ± 0.074 | 2.81 ± 0.088 | 2.64 ± 0.07
FRNNKNDNYSSDMENDN [REC8] | 3.44 ± 0.18 | 3.15 ± 0.23 | 3.2 ± 0.17 | 2.73 ± 0.11
FRSLFFRSYMDQEKKYG [RPB2] | 1.7 ± 0.051 | 2.14 ± 0.07 | 2.61 ± 0.078 | 2.57 ± 0.038
FRVQSQSNYGIYSSDAQ [NUT1] | 2.03 ± 0.053 | 2.51 ± 0.059 | 1.8 ± 0.074 | 2.42 ± 0.1
FSFGAATPSAKEASQED [YLR335W/NUP2] | 3.29 ± 0.062 | 3.25 ± 0.074 | 3.12 ± 0.055 | 3.16 ± 0.087
FSFGAKANEKKESDESK [YJL041W/NSP1] | 2.58 ± 0.12 | 3.38 ± 0.089 | 3.52 ± 0.078 | 3.18 ± 0.18
FSFSKSEEERKSSPISN [YOR098C/NUP1] | 2.48 ± 0.11 | 2.23 ± 0.071 | 2.41 ± 0.091 | 2.94 ± 0.084
FSLLVKAEIPPEYAKVG [SIN4] | 2.54 ± 0.063 | 2.45 ± 0.045 | 2.52 ± 0.057 | 2.72 ± 0.036
FSSNERYFFWLQEKNSG [RPN13] | 1.27 ± 0.048 | 1.65 ± 0.072 | 2.18 ± 0.076 | 2.25 ± 0.055
FTLWWSPTINRANVYVG [PRP8] | 1.99 ± 0.089 | 1.88 ± 0.07 | 1.61 ± 0.15 | 2.04 ± 0.051
FTMMTSEPLTLKVLSEH [PCI8] | 1.73 ± 0.056 | 1.96 ± 0.049 | 1.94 ± 0.095 | 1.54 ± 0.045
FTSAPIEVTIGIDQYSF [AAR2] | 1.52 ± 0.09 | 1.93 ± 0.086 | 1.53 ± 0.12 | 1.64 ± 0.082
FVKFITYLTQEILILIN [SIN4] | 2.02 ± 0.05 | 1.7 ± 0.044 | 1.57 ± 0.069 | 1.59 ± 0.042
FVKFLSKKGSLENNIRE [RPL10] | 3.32 ± 0.18 | 3.32 ± 0.16 | 3.11 ± 0.076 | 3.3 ± 0.057
FVKGISRDIKALQDSLF [YML103C/NUP188] | 2.25 ± 0.071 | 2.18 ± 0.058 | 1.97 ± 0.096 | 1.7 ± 0.043
FVKKTSEEIDSLNEDVE [SMC2] | 2.97 ± 0.17 | 3.2 ± 0.19 |  | 
